From patent US20110027321

Target: blue casein substrate (4-16% BlueCasein zymogram gel, Novex)

B1: recombinant 6 histidine tagged C. trachomatis HtrA polypeptide (serovar L2), purified from E. coli BL21 (DE3) (pET28-CtHtrA/L2) (protein)
chain: SPMLGYSASKKDSKADICLAVSSGDQEVSQEDLLKEVSRGFSRVAAKATPGVVYIENFPKTGNQAIASPGNKRGFQENPFDYFNDEFFNRFFGLPSHREQQRPQQRDAVRGTGFIVSEDGYVVTNHHVVEDAGKIHVTLHDGQKYTAKIVGLDPKTDLAVIKIQAEKLPFLTFGNSDQLQIGDWAIAIGNPFGLQATVTVGVVSAKGRNQLHIVDFEDFIQTDAAINPGNSGGPLLNINGQVIGVNTAIVSGSGGYIGIGFAIPSLMAKRVIDQLISDGQVTRGFLGVTLQPIDSELATCYKLEKVYGALVTDVVKGSPAEKAGLRQEDVIVAYNGKEVESLSALRNAISLMMPGTRVILKIVREGKTIEIPVTVTQIPTEDGVSALQKMGVRVQNITPEICKKLGLAADTRGILVVAVEAGSPAASAGVAPGQLILAVNRQRVASVEELNQVLKNSKGENVLLMVSQGDVVRFIVLKSDHHHHHHE
- protease activity in zymogram gel (zone of clearing): Recombinant C. trachomatis HtrA degradation (i.e. proteolysis) of the blue casein substrate is visualized as a zone of clearing at ˜49 kDa
